Reference: paper PMC6599655

Key:
[1] = Western blot of 293T cell lysates; details: glycan lost; control: wild type
[2] = Western blot of concentrated culture supernatant vs lysate; details: glycan lost; control: wild type

B1: Procollagen C-proteinase enhancer protein (PCOLCE): N29Q (protein)
parent chain: MLPAATASLLGPLLTACALLPFAQGQTPNYTRPVFLCGGDVKGESGYVASEGFPNLYPPNKECIWTITVPEGQTVSLSFRVFDLELHPACRYDALEVFAGSGTSGQRLGRFCGTFRPAPLVAPGNQVTLRMTTDEGTGGRGFLLWYSGRATSGTEHQFCGGRLEKAQGTLTTPNWPESDYPPGISCSWHIIAPPDQVIALTFEKFDLEPDTYCRYDSVSVFNGAVSDDSRRLGKFCGDAVPGSISSEGNELLVQFVSDLSVTADGFSASYKTLPRGTAKEGQGPGPKRGTEPKVKLPPKSQPPEKTEESPSAPDAPTCPKQCRRTGTLQSNFCASSLVVTATVKSMVREPGEGLAVTVSLIGAYKTGGLDLPSPPTGASLKFYVPCKQCPPMKKGVSYLLMGQVEENRGPVLPPESFVVLHRPNQDQILTNLSKRKCPSQPVRAAASQD
What does the source list for B1?
expression_or_secretion [1]: decreases; expression_or_secretion [2]: decreases
